According to PMC10058294, “Interaction of SARS-CoV-2 Nucleocapsid Protein and Human RNA Helicases DDX1 and DDX3X Modulates Their Activities on Double-Stranded RNA”:
Values joined by “and” are separate entries in the source; they are usually repeats but may differ in a detail not shown here. Equal entries are not always repeated.

Columns and labels:
[1] = biological target: SARS-CoV-2 nucleocapsid protein (Np);DDX3X (SARS-CoV-2;Homo sapiens, UniProt P0DTC9;O00571 1-419;1-662, |); assay: EMSA; Np titrated with fixed DDX3X; details: protein: recombinant;recombinant; tags: His (pET30a(+), Ni-NTA purified);pET30a(+) vector; label: 5'-FAM on the 18 mer
[2] = biological target: T1, SARS-CoV-2 nucleocapsid protein (Np) (SARS-CoV-2, UniProt P0DTC9 1-419); assay: EMSA; details: protein: recombinant; tags: His (pET30a(+), Ni-NTA purified); chain copies: 2; label: 5'-FAM on the 18 mer
[3] = biological target: T1, SARS-CoV-2 nucleocapsid protein (Np); assay: EMSA; apparent, cooperative fit; details: protein: recombinant; tags: His (pET30a(+), Ni-NTA purified); chain copies: 2; label: 5'-FAM on the 18 mer
[4] = biological target: SARS-CoV-2 nucleocapsid protein (Np);DDX1 (SARS-CoV-2;Homo sapiens, UniProt P0DTC9;Q92499 1-419;1-740, |); assay: EMSA; Np titrated with fixed DDX1; details: protein: recombinant;recombinant; tags: His (pET30a(+), Ni-NTA purified);pET30a(+) vector; label: 5'-FAM on the 18 mer
[5] = biological target: T1, SARS-CoV-2 nucleocapsid protein (Np); assay: EMSA; time course; details: protein: recombinant; tags: His (pET30a(+), Ni-NTA purified); chain copies: 2; label: 5'-FAM; single strand

B1: 18/38 mer FAM partially dsRNA (dsRNA)
RNA 1: AUGAAGGUUUGAGUUGAGUGGAGAUAGUGGAGGGUAGU
RNA 2: CUCAACUCAAACCUUCAU
- Kd [1]: 80 nM
- Kd [2]: 193 nM and 300 nM
- Kd [3]: 170 nM
- Kd [4]: 40 nM

Binder: CUCAACUCAAACCUUCAU (ssRNA) [ssRNA 18 mer FAM]
- binding result [5]: binds
